± gives the standard deviation of the averaged measurements.
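Also: PSI is a weighted mean of sequencing reads over stability bins, variants kept only with over 10 reads, mCherry proximal and sfGFP distal, peptide attached via GGGS linker.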

This series deals with Saccharomyces cerevisiae. In words: protein stability index of tFT-peptide fusion (C-terminal peptide) (PSI (0-1 scale)); higher = more stable (slower turnover). The note with it: genetic background: wild type; temperature: 30 C.
In the case of KRKPEHKSAAEE, the protein stability index is 0.669 ± 0.038.
The sequence KRKRAVQYLMQP returned a protein stability index of 0.615 ± 0.042.
To KRLKKKKQSGGK belongs 0.71 ± 0.03; to KRRSQKKKRIMD, 0.6968 ± 0.0043; to KRTKKKTKDERK, 0.644 ± 0.044.
The same measure for KRYSVPLTTVVD: 0.7165 ± 0.0035; for KSSEIKEKKTKK: 0.7151 ± 0.0011; for KSSNIINQKRIT: 0.66 ± 0.056.
To KSSTLRKIKRGK belongs 0.716 ± 0.03.
Take KTCENKKKALRR: the protein stability index amounted to 0.6923 ± 0.0016.
KTGRPSRRGSTT showed a protein stability index of 0.704 ± 0.036.
To KTGVRAVSLTGS belongs 0.696 ± 0.038; to KTHKKKKKNKNF, 0.525 ± 0.012.
As for KTINEKKKRIEQ, the protein stability index was determined as 0.713 ± 0.055.
In turn, KTIQDNNYDGIW registered a protein stability index of 0.766 ± 0.25.
KTKKNKKKKINK came in with a protein stability index of 0.692 ± 0.075.
For KTKRKKKRRRRE, the protein stability index came to 0.705 ± 0.067.
Sequence KTQKKPNNRKNI came in with a protein stability index of 0.682 ± 0.04.
KTRHVGSDNQGL displayed a protein stability index of 0.663 ± 0.043.
Sequence KVAECGYGTSWV displayed a protein stability index of 0.724 ± 0.013.
As to KVCESRQVEYFR, the protein stability index was found to be 0.634 ± 0.088.
Turning to KVCVLSPDSCGL, the protein stability index stood at 0.741 ± 0.033.
For the sequence KVGLGVNSLFTG, the protein stability index came to 0.745 ± 0.18.
To KVKGKSISKINH belongs 0.645 ± 0.055; to KVLTTISRAINK, 0.604 ± 0.012.
In turn, KVRDTFRDFGLM came in with a protein stability index of 0.673 ± 0.063.
KYMPKDSLKNTI had a protein stability index of 0.622 ± 0.01.
The sequence KYPRPNSYFVPI displayed a protein stability index of 0.717 ± 0.023.
To LAARTKAQARHN belongs 0.652 ± 0.04; to LACVYEVIPGPS, 0.677 ± 0.047.
LACWAGVLGWGG had a protein stability index of 0.732 ± 0.022.
LAESTSYNQRRP displayed a protein stability index of 0.701 ± 0.06.
Take LAGGRCGCGTHD: the protein stability index is 0.684 ± 0.042.
Sequence LAGLAVASVRRE showed a protein stability index of 0.683 ± 0.013.
LAGRPSTTRAFR gave a protein stability index of 0.59 ± 0.027.
On to LALFPDPSSIIL, for which the protein stability index came out at 0.7765 ± 0.0075.
The sequence LALHWVESRFKH showed a protein stability index of 0.71 ± 0.06.
LALSVRFFSVLF showed a protein stability index of 0.587 ± 0.036.
To LALVGGACVGRV belongs 0.65 ± 0.044.
To LANGACLLRLNF belongs 0.54 ± 0.017; to LAPLALPLPPPT, 0.832 ± 0.18.
Consider LAPPPLGNSSRP, for which the protein stability index amounted to 0.704 ± 0.049.
Turning to LARGGASIGGES, the protein stability index is 0.701 ± 0.015.
LARPPPPSNHSP registered a protein stability index of 0.695 ± 0.0094.
As for LASCAFQFLASC, the protein stability index was found to be 0.691 ± 0.098.
With LASGSVSCFWSG, the protein stability index is 0.71 ± 0.021.
The sequence LASSGQSWLVVF showed a protein stability index of 0.563 ± 0.011.
To LASSSPPTRPPH belongs 0.702 ± 0.048; to LASVSNFLASGK, 0.72 ± 0.058.
LAVNGEIERVCD: the protein stability index came out at 0.636 ± 0.11.
Regarding LAWALGESSPIG, the protein stability index is 0.737 ± 0.044.
Take LAYCGSTYVSRH: the protein stability index stood at 0.699 ± 0.022.
With LCANDRGVAALA, the protein stability index is 0.683 ± 0.046.
With LCCSFGLFTLFW, the protein stability index came out at 0.711 ± 0.042.
LCHCLSLLFSFL came in with a protein stability index of 0.581 ± 0.015.
Regarding LCLFPLVTPPPA, the protein stability index is 0.607 ± 0.029.
The sequence LCLGFDGAFPLF registered a protein stability index of 0.725 ± 0.014.
In turn, LCPTGAPLYFSL registered a protein stability index of 0.64 ± 0.093.
Sequence LCRSSIILTLLL returned a protein stability index of 0.586 ± 0.057.
Regarding LCSPGPLPPSYF, the protein stability index is 0.705 ± 0.045.
LCVGVGAAIRLW displayed a protein stability index of 0.598 ± 0.039.
For LDCVPRTHCILS, the protein stability index came out at 0.664 ± 0.074.
As for LDEFFIKTSANM, the protein stability index was 0.652 ± 0.088.
For LDGSQDGANRRT, the protein stability index was found to be 0.728 ± 0.095.
LDLCTVIRFVGI displayed a protein stability index of 0.723 ± 0.029.
To LDRDTSCYMLDF belongs 0.718 ± 0.03.
The sequence LDSGQALLSIPI had a protein stability index of 0.643 ± 0.12.
LEGEESISQMNE gave a protein stability index of 0.664 ± 0.043.
The same measure for LEQAGFWWPKGL: 0.764 ± 0.0087; for LEVLGVPQLIRS: 0.534 ± 0.07; for LEWHRPLCPPLF: 0.734 ± 0.075.
LFCGALSTRLAR showed a protein stability index of 0.751 ± 0.081.
With LFCVARARLGCW, the protein stability index amounted to 0.768 ± 0.026.
As for LFERSFSSHPVL, the protein stability index is 0.769 ± 0.13.
The sequence LFFLPSVLPFHC displayed a protein stability index of 0.636 ± 0.025.
The sequence LFFSLLCSSFGS had a protein stability index of 0.708 ± 0.022.
In turn, LFGFSPAPVSFG registered a protein stability index of 0.733 ± 0.073.
As for LFHPPVCPVFLD, the protein stability index is 0.758 ± 0.037.
LFIGFFGIECFI displayed a protein stability index of 0.5798 ± 0.0037.
LFILSLGEYSLP yielded a protein stability index of 0.673 ± 0.066.

Values taken from the supplement of paper PMC10724198.
